Reference: PMC4935545 (Molecular cell, 2016)
One block for each molecule: values may come before it.

Legend:
mCLI-Mis18α (human) = mCLI-Mis18α (human) (UniProt Q9NYP9)
MBP-HJURP^R1 (human) [1] = target: MBP-HJURP^R1 (human) (UniProt Q8NCD3); assay: SEC + other: glycerol gradient sedimentation
[2] = target: His-tagged Mis18α (human) (UniProt Q9NYP9); assay: SEC + other: glycerol gradient sedimentation
[3] = target: Strep-tagged Mis18β (human) (UniProt O43482); assay: SEC + other: glycerol gradient sedimentation
MBP-HJURP^R1 (human) [4] = target: MBP-HJURP^R1 (human) (UniProt Q8NCD3); assay: pull-down
[5] = target: the molecule itself; assay: SEC + other: glycerol gradient sedimentation

MBP-HJURP^R1 (human), sequence (Q8NCD3 348-555): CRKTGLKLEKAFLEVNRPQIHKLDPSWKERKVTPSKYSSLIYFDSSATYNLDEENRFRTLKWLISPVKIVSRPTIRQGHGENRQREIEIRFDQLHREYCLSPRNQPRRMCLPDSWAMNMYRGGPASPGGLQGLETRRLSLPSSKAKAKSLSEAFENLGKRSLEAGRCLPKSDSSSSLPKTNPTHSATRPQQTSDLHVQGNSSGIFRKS
mCLI-Mis18α (human), sequence (Q9NYP9 whole entry): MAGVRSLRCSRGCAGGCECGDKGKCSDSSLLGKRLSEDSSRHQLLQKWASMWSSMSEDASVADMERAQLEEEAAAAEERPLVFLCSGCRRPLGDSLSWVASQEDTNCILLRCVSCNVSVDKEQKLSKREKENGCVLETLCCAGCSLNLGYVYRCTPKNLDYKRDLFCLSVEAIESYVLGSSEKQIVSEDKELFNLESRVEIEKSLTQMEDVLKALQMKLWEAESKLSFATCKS
Strep-tagged Mis18β (human), sequence (O43482 whole entry): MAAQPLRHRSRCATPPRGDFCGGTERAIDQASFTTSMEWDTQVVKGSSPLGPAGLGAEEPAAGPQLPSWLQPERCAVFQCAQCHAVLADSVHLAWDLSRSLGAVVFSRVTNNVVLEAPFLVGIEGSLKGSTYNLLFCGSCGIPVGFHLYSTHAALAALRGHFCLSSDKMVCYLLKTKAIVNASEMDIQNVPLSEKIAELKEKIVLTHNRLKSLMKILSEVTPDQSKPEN

Molecule: Strep-tagged Mis18β (from UniProt O43482 1-229) (natural protein)
- stoichiometry N (MBP-HJURP^R1 (human) [1]): 1
- stoichiometry N [3]: 2

B1: S. pombe Mis18 (recombinant) (natural protein, UniProt Q9P802 1-194, looked up)
chain: MSQTETSHSGYIDFKKESQPSVFQCKKCFQIVGDSNAWVISHREYLSFTLSDAVENSVRVEDTFKRSDDGLCVYSELSCTRCNEVIGKVYNSTPIYLDDIRDMYTFSMDKLQAYQLGNKTVNPEGLTRYQVDLEMREDIIKLKSFCLSLYEKFELHDETLRSVKETISSLKKPKIEGKEGKKEKARTYSKRTRK
- stoichiometry N [5]: 4

Results, then the molecule that gave them:

- percent of transfected cells with recruitment to the array (mCLI-Mis18α (human)): 100%
Molecule: GFP-Mis18β (from UniProt O43482 1-229) (natural protein)

- stoichiometry N (MBP-HJURP^R1 (human) [1]): 1
- stoichiometry N [2]: 2
- stoichiometry N [3]: 1
Molecule: His-tagged Mis18α (from UniProt Q9NYP9 1-233) (natural protein)

- fold binding against Mis18α or Mis18β alone (MBP-HJURP^R1 (human) [4]): 2 fold
Molecule: Mis18α-β heterotetramer (preformed from recombinant Mis18α and Mis18β) (from UniProt Q9NYP9 1-233; O43482 1-229) (complex)
